For assay [1], the target named is human TNFRSF25 over-expressed on CHOK1 cells (cDNA sequence NP_683866) (human) (UniProt Q93038). The assay is described as follows: flow cytometry on CHOK1-TNFRSF25+ cells; APC anti-human Fc. In general terms: In flow cytometry, cells or beads pass a laser one at a time.
Assay [2] shares this target. The assay is described as follows: flow cytometry competition (upper panel); CHOK1-TNFRSF25+ cells with antibody 30 min at 4 C, then biotinylated human TL1A-Fc at 156 nM, PE-streptavidin.
For assay [3] the target is unchanged. Nature of the assay: flow cytometry on CHOK1-TNFRSF25+ cells (lower panel), 1 h at 4 C, APC anti-human Fc.

Positions count from the first letter of the chain named.

B1: NH46 (whole antibody) (antibody, human IgG1, kappa, V domains shown)
VH: QVQLVQSGSEVKKPGASVRVSCKVSGSTVKELSMHWVRQAPGKGLEWMGGYDPEDGESIFAQKFQGRVNMTEDRSTDTAYMELSSLRSEDTAVYYCATDLNWEDAFDVWGQGTMVTVSS
VL: QSVLTQPPSVSAAPGQKVTISCSGSGSNIGNYYVAWYQQFPGTAPKLLIYDNNKRPSGIPDRFSGSKSGTSATLGITGLQTGDEADYYCGTWDTSLTAGDIYVFGTGTKVTVLR
One may read the EC50 as the concentration that produces a half-maximal response. Read a low EC50 as greater potency. Broadly, the IC50 is the concentration that gives 50% inhibition. Read a high IC50 as lower potency. The molecule B1 displayed an EC50 in assay [1] of 0.05 nM. This molecule also showed a concentration for half-maximal inhibition (IC50) in assay [2] of 49 nM.

B2: SL-061mut213 (antibody, human IgG1, kappa, V domains shown)
VH: QVQLQQSGPGLVKPSQTLSLTCAISGDSVSSYSAAWNWIRQSPSRGLEWLGRTYYRSKWFNDYAVSVKSRITINPDTSKNQFSLQLNSVTPEDTAVYYCARDYYGSESYYNRGYYYYGLDVWGQGTTVTVSS
VL: AIQLTQSPSSLSASVGDRVTITCRASPSISSALAWYQQKPGKAPKLLMYDESSQEGSVPSRFSGSGSGTDFTLTISSLQPEDFATYYCQQFNEYPLTFGGGTKVEIKR
What is called EC50 (read off the curve) is the concentration needed to bring the measured effect to its halfway point. B2: the EC50 (read off the curve) in assay [3] was found to be 0.003 nM.

B3: NH24-35 (antibody) (antibody, V domains shown)
VH: EVQLVESGGGSVQPGGSLRLSCAASGFTFSSYGMSWIRQAPGKGLEWVSYISSSGGHTYYADSVKGRFTISRDNAKNSLYLQMNSLRAEDTAVYYCARYSGAFDHWGQGTLVTVSS
VL: DIVMTQSPSSLSASVGDRVTITCQASQDITNYLSWYQQKPGKAPKLLINDASNLETGVPSRFSGSGSGTDFTFTISSLQPEDIATYYCQQYDTLPITFGQGTRLEIKR
As to B3, in assay [2], the concentration for half-maximal inhibition (IC50) came out at 4 nM.

B4: NH24-72 (antibody, V domains shown)
VH: B3 VH with S35N, V48I, S49T, Y99G, S100Q, A102P, D104E, H105Y
VL: B3 VL with T30S, T93N
As to B4, the IC50 in assay [2] turned out to be 8 nM.

B5: NH24-162 (antibody, V domains shown)
VH: B3 VH with I37V, V48I, R67Q, Y99G, A102S, H105Y
VL: B3 VL with T30S, N49S, T93N
In turn, B5 displayed an IC50 in assay [2] of 49 nM.

The values are drawn from patent US12319742.
